According to PMC5120336, “The N-terminal loop of IRAK-4 death domain regulates ordered assembly of the Myddosome signalling scaffold” (Scientific Reports, 2016):

B1: IRAK-4 kinase dead mutant (KK213AA) (LUMIER construct) (natural protein, human, UniProt Q9NWZ3 1-460, looked up)
chain: MNKPITPSTYVRCLNVGLIRKLSDFIDPQEGWKKLAVAIKKPSGDDRYNQFHIRRFEALLQTGKSPTSELLFDWGTTNCTVGDLVDLLIQNEFFAPASLLLPDAVPKTANTLPSKEAITVQQKQMPFCDKDRTLMTPVQNLEQSYMPPDSSSPENKSLEVSDTRFHSFSFYELKNVTNNFDERPISVGGNKMGEGGFGVVYKGYVNNTTVAVAALAAMVDITTEELKQQFDQEIKVMAKCQHENLVELLGFSSDGDDLCLVYVYMPNGSLLDRLSCLDGTPPLSWHMRCKIAQGAANGINFLHENHHIHRDIKSANILLDEAFTAKISDFGLARASEKFAQTVMTSRIVGTTAYMAPEALRGEITPKSDIYSFGVVLLEIITGLPAVDEHREPQLLLDIKEEIEDEEKTIEDYIDKKMNDADSTSVEAMYSVASQCLHEKKNKRPDIKKVQQLLQEMTAS
notes: IRAK-4, human; also called kinase dead IRAK-4; KD
B2: MyD88 containing the death domain and intermediate domain (aa 1 to 158) (domain or fragment, human, UniProt Q99836 1-158, looked up)
chain: MAAGGPGAGSAAPVSSTSSLPLAALNMRVRRRLSLFLNVRTQVAADWTALAEEMDFEYLEIRQLETQADPTGRLLDAWQGRPGASVGRLLELLTKLGRDDVLLELGPSIEEDCQKYILKQQQEEAEKPLQVAAVDSSVPRTAELAGITTLDDPLGHMP
notes: MyD88, human, death domain and intermediate domain, aa 1 to 158; Alone it elutes as a dimer (35 kDa) on size exclusion; also called MyD88 DD; MyD88 death domain; source: E. coli BL21 Star (DE3), purified (GSTrap with on-column Tev cleavage, HisTrap, Superdex 75); not shown: 6xHis-GST, N-terminal, cleaved

Key:
[1] = target: T1, MyD88 (LUMIER construct) (human, UniProt Q99836 1-296); test: LUMIER; affinity purification of Protein A tagged proteins on magnetic IgG beads (Dynabeads M-280, sheep anti-rabbit IgG); co-purified protein detected by Renilla luciferase activity; conditions: partners not purified
T1 construct: MyD88, human

[2] = target: the molecule itself; test: SEC; Myddosome assembly assay: death domains alone or mixed 1:1, concentrated to 0.5 mg.ml^-1, calibrated TSKgel SuperSW3000 analytical size exclusion column, 0.3 ml.min^-1, peaks analysed by reducing SDS-PAGE

Row | Binder | fold binding against wild-type IRAK-4 [1] [fold] | stoichiometry N [2]
1 | B1 | ~5 | –
2 | B2 | – | 2
